According to the nanobody polyreactivity screen of Harvey et al. (2022):

Test: yeast display, Sf9 membrane polyspecificity reagent, FACS + sequencing; frameworks hold sequencing errors
Summary of the method: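 Nanobodies came from a synthetic yeast display library in Saccharomyces cerevisiae BJ5465, induced with galactose for 36–48 hours and stained for 1 hour at 4 °C with 10% biotinylated, detergent-solubilized Sf9 membrane reagent. Cells were enriched on streptavidin microbeads and then FACS-sorted, with low and high (top ~1%) gates set on anti-HA fluorescence for expression and streptavidin fluorescence for reagent binding. Each polyreactivity label reflects the gate a clone came from. Genes were amplified by colony PCR, sequenced by MiSeq 2 × 250 and filtered by CDR length.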

Row | Sequence | polyreactivity (PSR sort gate)
1 | QVQLVESGGGLVQAGGSLRLSCAASGFTFKRYAMGWYRQAPGKERELVAAISYSGGSTYYADSVKGRYTISRDNAKNTVYLQMNSLKPEVTAVYYCNTGRRYYSYRRDYWGQGTQVTVSS | high polyreactivity
2 | QVQLVESGGGLVQAGGSLRLSCAASGFTFKRYAMGWYRQAPGNERELVAAISYSGGSTYYADSVKWRFTISRDNAKNTVYLQMKSLKPEDTAVYYCAAPRGHGKYYSWGQGTQVTVSS | high polyreactivity
3 | QVQLVESGGGLVQAGGSLRLSCAASGFTFKRYDMGWYRQAPGKERELVAAISWNGGSTYYADSVKGRFTISRDNAKNTVYLQMNSLKPEDTAVYYCAARFAYPPKRYYWGQGTQVTVSS | high polyreactivity
4 | QVQLVESGGGLVQAGGSLRLSCAASGFTFKSNAMGWYRPSPGKERELVAAITWNGGSTYADSEKGRFTISRDNAKNTVYLQMNSLKPEDTAVYYCAARPYPHSAYEGDYWGRGTQVTVSS | low polyreactivity
5 | QVQLVESGGGLVQAGGSLRLSCAASGFTFKWYTMGWYRPAPGKERELVAGISRRGGSTYYADSVKGRFTISRDNAKNTVYLQMNSLKPEDTAVYYCARRFLYPYDHWGQGTQVTVSS | high polyreactivity
6 | QVQLVESGGGLVQAGGSLRLSCAASGFTFKYNAMGWNRQAPGKERELVASISSGSTNYADSVKGRFTISRDNAKNTVYLQMNSLKPEDTAVYYCAASVSRGKRVRYGYLFKMDYWGQGTLVTVSS | low polyreactivity
7 | QVQLVESGGGLVQAGGSLRLSCAASGFTFKYYAMGWYRQAPGKERELVAAINRSGGSTHYADSVKGRFTISRDIAKNTVYLQINSLKPEDTAVYYCAATGRRRTYSEYEYWGQGTQVTVSS | high polyreactivity
8 | QVQLVESGGGLVQAGGSLRLSCAASGFTFKYYAMGWYRQAPGKERELVAGISLIDGSTYYADSVKGRFTISRDNAKNTVYLQMNSLKPEDTAVYSCAKDRAPDGHYGSYDYWGQGTQVTVSS | low polyreactivity
9 | QVQLVESGGGLVQAGGSLRLSCAASGFTFKYYAMGWYRQAPGKERELVASISWDGTRTYYADSVKGRFTISRDNAKNTVYLQMNSLKPEDTAVYDGAAVFLDYRTYSYGYWGQGTQVTVSS | high polyreactivity
10 | QVQLVESGGGLVQAGGSLRLSCAASGFTFKYYAMGWYRQAPGKERELVAVISTRGTNTYYADSVKGRFTISRDNAKNTVYLQMNSLKPEDTAVYYCAAVLGGNSRLDYWGQGTQVTVSS | high polyreactivity
11 | QVQLVESGGGLVQAGGSLRLSCAASGFTFLDNAMGWYRPAPGKERELVAAISGIGGSTSYADSVKGRFTISRDNAKNTVYLQMNSLKPEDTAVYYCATRWQTVGRDTIFAYDYWGQGTQVTVSS | low polyreactivity
12 | QVQLVESGGGLVQAGGSLRLSCAASGFTFLFNTMGWYRQAPGKERELVAGISRGGSTTYADSVKGRFTISRDNAKNTVYLQMNSLKPEDTAVYYCAARTRYNWRGYDYWGQGTQVTVSS | high polyreactivity
13 | QVQLVESGGGLVQAGGSLRLSCAASGFTFLGYAMGWYRQAPGKERELVAAITRGGSTYYADSVKGRFTISRDNAKNTVYLQMNSLKPEDTAVYYCAARARAGGYGYWGQGTQVTVSS | high polyreactivity
14 | QVQLVESGGGLVQAGGSLRLSCAASGFTFLGYDMGWYRQAPGKERELVAAIDYSGGSTYYADSVKGRFTISRDNAKNTVYLQMNSLKPEDTAVYYCAAEYQSGPYTWYEYWGQGTQVTVSS | high polyreactivity
15 | QVQLVESGGGLVQAGGSLRLSCAASGFTFLINAMGWYRQAPGKERELVAAIRSGGSTNYADSVKGRFTISRDNAKNSVYLQMNSLKPEDTAVYYCAARRYYPYKYRYGYWGQGTQVTVSS | high polyreactivity
16 | QVQLVESGGGLVQAGGSLRLSCAASGFTFLRYAMGWYRQAPGKERELVAAITGSGGSTYYADSVKGRFTISRDNAQNTVYLQMNSLKPEDTAVYYCSIVSKFTGDYGYWGQGTQVTVSS | high polyreactivity
17 | QVQLVESGGGLVQAGGSLRLSCAASGFTFLSYTMGWYRQAPGKERELVASITASGTRTYYADSVKGRFTISRDNAKNTVYLQMNRLKPEDTAVYYCAARRSGSGSHDYGYWGQGTQVTVSS | low polyreactivity
18 | QVQLVESGGGLVQAGGSLRLSCAASGFTFLSYTMGWYRQAPGKERELVASITASGTRTYYADSVKGRFTISRDNAKNTVYLQMNRLKPEDTSVYYCAARRSGSGSHDYGYWGQGTQVTVSS | low polyreactivity
19 | QVQLVESGGGLVQAGGSLRLSCAASGFTFLVNTMGWYRQAPGKERELVAATITSTGASTYYADSVKGRFTISRDNAKNTVYLQMNSLKPEDTAVYYCAVDPGGGNYIYYYNEYDYWGQGTQVTVSS | low polyreactivity
20 | QVQLVESGGGLVQAGGSLRLSCAASGFTFLYNAMGWYRQAPGKERELVASINSGGSTNYADSVKGRFTISRDNAKNTVYLQMNSLKPEDTAVYYCAADKGPLQRGFDYWGQGTQVTVSS | low polyreactivity
21 | QVQLVESGGGLVQAGGSLRLSCAASGFTFLYNTMGWYRQAPGKERELVAAISIRGGSTYYADSVKGRFTISRDNAKNTVYLQMNSLKPEETAVYYCAARTPPPSSRSRVYYWGLGTQVTVSS | high polyreactivity
